Test results published in the supplement of paper PMC10201428.
± gives the standard deviation of the averaged measurements.

B1: library; a variant is named by its letters at N, in order (parent)
chain: ACATTTGTTGATACAACCATAAAATGATAATTACACCCATAAATTGATAATTATCACACCCANNNNNNNNNNNNNNCTCTGATCATAGTCAGACCAACATTGCTACGACCCGTATTCGCACCGACAC

How the values were obtained:
[1] = variants of: B1; assay: relative integration efficiency (T-RL orientation) vs wild-type transposon end (log2 (normalized fold change)); transposon end mutated: right end (5 bp flank + 75 bp right end); higher = more efficient transposition; conditions: with VchCAST RNA-guided transposition machinery (E. coli BL21(DE3) host, lacZ target)
Protocol: (§1)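 Pooled, barcoded VchCAST (Tn6677) mini-transposon donor libraries; each variable transposon-end sequence sits in a fixed pDonor mini-transposon context (10-bp barcode and cargo not included). Left- or right-end libraries were co-transformed with pEffector (TniQ-Cascade, TnsABC, lacZ crRNA, T7, 0.1 mM IPTG) into E. coli BL21(DE3) and grown 18 h at 37 C. T-LR and T-RL junction amplicons were sequenced; output/input barcode fold change was normalised to the mean of four wild-type barcodes and log2-transformed. Two biological replicates; zero-count/undetected variants carry floor values (-10 / -15), censored here. Barcode uncoupling by PCR recombination adds noise.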

[2] = variants of: B1; assay: relative integration efficiency (T-LR orientation) vs wild-type transposon end (log2 (normalized fold change)); transposon end mutated: right end (5 bp flank + 75 bp right end); higher = more efficient transposition; conditions: with VchCAST RNA-guided transposition machinery (E. coli BL21(DE3) host, lacZ target)
Protocol: as §1

ACATTTGTTGATACAACCATAAAATGATAATTACACCCATAAATTGATAATTATCACACTCATAAATTGATATTGCCTCTGATCATAGTCAGACCAACATTGCTACGACCCGTATTCGCACCGACAC [TAAATTGATATTGC C60T]
relative integration efficiency (log2) [1]: -0.182 ± 0.028 | relative integration efficiency (log2) [2]: 0.2 ± 0.2

ACATTTGTTGATACAACCATAAAATGATAATTACACCCATAAATTGATAATTATCACACGCATAAATTGATATTGCCTCTGATCATAGTCAGACCAACATTGCTACGACCCGTATTCGCACCGACAC [TAAATTGATATTGC C60G]
relative integration efficiency (log2) [1]: 0.0119 ± 0.012 | relative integration efficiency (log2) [2]: 0.315 ± 0.03

ACATTTGTTGATACAACCATAAAATGATAATTACACCCATAAATTGATAATTATCACACACATAAATTGATATTGCCTCTGATCATAGTCAGACCAACATTGCTACGACCCGTATTCGCACCGACAC [TAAATTGATATTGC C60A]
relative integration efficiency (log2) [1]: -0.462 ± 0.027 | relative integration efficiency (log2) [2]: 1.55 ± 0.14

ACATTTGTTAATACAACCATAAAATGATAATTACACCCATAAATTGATAATTATCACACCCATAAATTGATATTGCCTCTGATCATAGTCAGACCAACATTGCTACGACCCGTATTCGCACCGACAC [TAAATTGATATTGC G10A]
relative integration efficiency (log2) [1]: 0.115 ± 0.017 | relative integration efficiency (log2) [2]: -0.464 ± 0.17

ACATTTGTTGATACAACCATAAAATGATAATTACACCCATAAATTGATAATTATCACACCCATAAATTGATATTGCTTCTGATCATAGTCAGACCAACATTGCTACGACCCGTATTCGCACCGACAC [TAAATTGATATTGC C77T]
relative integration efficiency (log2) [1]: -0.00923 ± 0.0046 | relative integration efficiency (log2) [2]: -0.351 ± 0.044

ACATTTGTTGATACAACCATAAAATGATAATTACACCCATAAATTGATAATTATCACACCCATAAATTGATATTGCATCTGATCATAGTCAGACCAACATTGCTACGACCCGTATTCGCACCGACAC [TAAATTGATATTGC C77A]
relative integration efficiency (log2) [1]: -0.111 ± 0.093 | relative integration efficiency (log2) [2]: -0.0608 ± 0.27

ACATTTGTTGATACAACCATAAAATGATAATTACACCCATAAATTGATAATTATCACACCCATAAATTGATATTGCGTCTGATCATAGTCAGACCAACATTGCTACGACCCGTATTCGCACCGACAC [TAAATTGATATTGC C77G]
relative integration efficiency (log2) [1]: 0.0121 ± 0.017 | relative integration efficiency (log2) [2]: -0.217 ± 0.018

ACATTTGTTGATACAACCATAAAATGATAATTACACCCATAAATTGATAATTATTACACCCATAAATTGATATTGCCTCTGATCATAGTCAGACCAACATTGCTACGACCCGTATTCGCACCGACAC [TAAATTGATATTGC C55T]
relative integration efficiency (log2) [1]: -0.293 ± 0.17 | relative integration efficiency (log2) [2]: 0.175 ± 0.29

ACATTTGTTGATACAACCATAAAATGATAATTACACCCATAAATTGATAATTATCACAACCATAAATTGATATTGCCTCTGATCATAGTCAGACCAACATTGCTACGACCCGTATTCGCACCGACAC [TAAATTGATATTGC C59A]
relative integration efficiency (log2) [1]: 0.048 ± 0.078 | relative integration efficiency (log2) [2]: -0.0286 ± 0.31

ACATTTGTTGATACAACCATAAAATGATAATTACACCCATAAATTGATAATTATCACAGCCATAAATTGATATTGCCTCTGATCATAGTCAGACCAACATTGCTACGACCCGTATTCGCACCGACAC [TAAATTGATATTGC C59G]
relative integration efficiency (log2) [1]: -0.141 ± 0.043 | relative integration efficiency (log2) [2]: 0.747 ± 0.024

ACATTTGTTGATACAACCATAAAATGATAATTACACCCATAAATTGATAATTATCACATCCATAAATTGATATTGCCTCTGATCATAGTCAGACCAACATTGCTACGACCCGTATTCGCACCGACAC [TAAATTGATATTGC C59T]
relative integration efficiency (log2) [1]: -0.0651 ± 0.0017 | relative integration efficiency (log2) [2]: 0.538 ± 0.076

ACATTTGTTGATACAACCATAAAATGATAATTACACCCATAAATTGATAATTATCACACCGATAAATTGATATTGCCTCTGATCATAGTCAGACCAACATTGCTACGACCCGTATTCGCACCGACAC [TAAATTGATATTGC C61G]
relative integration efficiency (log2) [1]: 0.142 ± 0.018 | relative integration efficiency (log2) [2]: 0.81 ± 0.3

ACATTTGTTGATACAACCATAAAATGATAATTACACCCATAAATTGATAATTATCACACCTATAAATTGATATTGCCTCTGATCATAGTCAGACCAACATTGCTACGACCCGTATTCGCACCGACAC [TAAATTGATATTGC C61T]
relative integration efficiency (log2) [1]: -0.0918 ± 0.017 | relative integration efficiency (log2) [2]: 0.755 ± 0.17

ACATTTGTTGATACAACCATAAAATGATAATTACACCCATAAATTGATAATTATCACACCAATAAATTGATATTGCCTCTGATCATAGTCAGACCAACATTGCTACGACCCGTATTCGCACCGACAC [TAAATTGATATTGC C61A]
relative integration efficiency (log2) [1]: -0.241 ± 0.071 | relative integration efficiency (log2) [2]: 1.04 ± 0.15

ACATTTATTGATACAACCATAAAATGATAATTACACCCATAAATTGATAATTATCACACCCATAAATTGATATTGCCTCTGATCATAGTCAGACCAACATTGCTACGACCCGTATTCGCACCGACAC [TAAATTGATATTGC G7A]
relative integration efficiency (log2) [1]: -0.0765 ± 0.034 | relative integration efficiency (log2) [2]: -0.974 ± 0.015

ACATTTCTTGATACAACCATAAAATGATAATTACACCCATAAATTGATAATTATCACACCCATAAATTGATATTGCCTCTGATCATAGTCAGACCAACATTGCTACGACCCGTATTCGCACCGACAC [TAAATTGATATTGC G7C]
relative integration efficiency (log2) [1]: -0.529 ± 0.13 | relative integration efficiency (log2) [2]: -1.41 ± 0.63

ACATTTTTTGATACAACCATAAAATGATAATTACACCCATAAATTGATAATTATCACACCCATAAATTGATATTGCCTCTGATCATAGTCAGACCAACATTGCTACGACCCGTATTCGCACCGACAC [TAAATTGATATTGC G7T]
relative integration efficiency (log2) [1]: -2.2 ± 0.4 | relative integration efficiency (log2) [2]: -3.44 ± 0.49

ACATTTGTTGATACAACCATAAAATGATAATTACACCCATAAATTGATAATTATCACACCCATAAATTGATATTGCCTTTGATCATAGTCAGACCAACATTGCTACGACCCGTATTCGCACCGACAC [TAAATTGATATTGC C79T]
relative integration efficiency (log2) [1]: 0.00455 ± 0.031 | relative integration efficiency (log2) [2]: -0.191 ± 0.27

ACATTTGTTGATACAACCATAAAATGATAATTACACCCATAAATTGATAATTATCACACCCATAAATTGATATTGCCTATGATCATAGTCAGACCAACATTGCTACGACCCGTATTCGCACCGACAC [TAAATTGATATTGC C79A]
relative integration efficiency (log2) [1]: -0.158 ± 0.087 | relative integration efficiency (log2) [2]: -0.334 ± 0.18

ACATTTGTTGATACAACCATAAAATGATAATTACACCCATAAATTGATAATTATCACACCCATAAATTGATATTGCCTGTGATCATAGTCAGACCAACATTGCTACGACCCGTATTCGCACCGACAC [TAAATTGATATTGC C79G]
relative integration efficiency (log2) [1]: -0.0645 ± 0.0099 | relative integration efficiency (log2) [2]: -0.196 ± 0.19

ACATTTGTTGATACAACCATAAAATGATAATTACACCCATAAATTGATAATTATCAAACCCATAAATTGATATTGCCTCTGATCATAGTCAGACCAACATTGCTACGACCCGTATTCGCACCGACAC [TAAATTGATATTGC C57A]
relative integration efficiency (log2) [1]: -0.104 ± 0.063 | relative integration efficiency (log2) [2]: 0.461 ± 0.12

ACATTTGTTGATACAACCATAAAATGATAATTACACCCATAAATTGATAATTATCAGACCCATAAATTGATATTGCCTCTGATCATAGTCAGACCAACATTGCTACGACCCGTATTCGCACCGACAC [TAAATTGATATTGC C57G]
relative integration efficiency (log2) [1]: -0.05 ± 0.075 | relative integration efficiency (log2) [2]: 1.552 ± 0.015

ACATTTGTTGATACAACCATAAAATGATAATTACACCCATAAATTGATAATTATCATACCCATAAATTGATATTGCCTCTGATCATAGTCAGACCAACATTGCTACGACCCGTATTCGCACCGACAC [TAAATTGATATTGC C57T]
relative integration efficiency (log2) [1]: -0.204 ± 0.0024 | relative integration efficiency (log2) [2]: 0.91 ± 0.032
